Measurements taken from patent US11957762B2, “Immune tolerant and non-immune tolerant elastin-like recombinant peptides and methods of use” (University of Utah Research Foundation, priority 2015, dated 2024).

Assays:
[1] = Hydrodynamic diameter by dynamic light scattering (DLS); type: physicochemical; parameters: Stability: key to the marks not given beside the values
Description: Characterization of the size of iTEPB-pOVA and iTEPB-iTEPA-pOVA fusions. The particle size distribution of the iTEP fusions was determined by dynamic light scattering (DLS) using a Zetasizer Nano-ZS instrument (Malvern Instruments, Malvern, UK) as previously described.^(29) The fusions were prepared at 5 μM and 25 μM in PBS and equilibrated at 37° C. for the measurement. The reported results represented the average particle size by number.
Dynamic light scattering (DLS) measurement. The measurement was carried out as previously described. iTEP, iTEP-MPBH-ABA-Sali conjugate, or PTX NP were measured at 25 μM in PBS at 37° C. using a Malvern Zetasizer Nano system (Malvern, Chester County, PA, USA).
Characterization of hydrodynamic diameters of iTEP-vaccine fusions. Hydrodynamic diameters of iTEP-vaccine fusions were determined by dynamic light scattering (DLS) using a Zetasizer Nano-ZS instrument (Malvern Instruments, Malvern, UK) as previously described (Zhao et al., Mol Pharm, 2014; 11(8):2703-12). The samples were resuspended at concentrations of 5, 25, 50, and 100 μM in PBS and sat at room temperature overnight before measurement. Some samples were kept in 5% C02 at 37° C. for 16 h before DLS measurement. Hydrodynamic diameter results of the sample of 5 μM concentration were reported because they were not affected by the used sample concentrations. Hydrodynamic diameters were presented using the size-by-number distribution approach. Z-average values and sizes-by-intensity data, however, were also reported.

DC2.4 cells = assay: Presentation of the CTL epitope […] by DCs (flow cytometry); type: cell-based, murine; settings: 16 h incubation with DC2.4 cells
Description: Presentation of the CTL epitope, […], by DCs. Cells of a murine DC line (DC2.4, a gift from K. Rock)^(32) were plated at 2.5×10^5/500 μL/well in 24-well plates. 500 μL of OVA, […] peptide (SEQ ID NO: 22), or iTEPB-iTEPA-pOVA NP (SEQ ID NO: 56) (iTEP-pOVA NP hereafter) were dissolved in cell culture media and added to the wells containing DCs. The cells were further cultured for 16 hrs. at 37° C. with 5% CO2 before they were collected and washed with PBS. The MHC class I complex, H-2kb/[…] presented on DC surface was stained with a PE-tagged monoclonal antibody 25-D1.16 (Biolegend, 1:100 dilution) and quantified with flow cytometry (5×10^4 events collected per sample). The data are presented as MFI normalized to the MFI of untreated DC2.4 cells.
Presentation of […] epitope vaccine by DCs. The presentation was studied as previously described (Cho et al., J Drug Target, 2015; p 1-12). The concentration of iTEP-vaccine fusions (NPs) used in this experiment was 5 μM. The results of presentation were shown as mean fluorescence intensity (MFI) of 5000 treated, live cells in a given treatment, which were normalized to the MFI value of untreated DC2.4 cells.

C57BL/6 mice = assay: In vivo CTL response by ELISPOT IFN-γ assay; parameters: species or system mouse; settings: for SIINFEKL-specific CTL response in vivo: immunized C57BL/6 mice, ELISPOT
Description: in vivo CTL response by ELISPOT IFN-γ assay. C57BL/6 mice were immunized subcutaneously with each immunogen (2 nmol […] equivalents per mouse) together with incomplete Freunds Adjuvants (IFA; Sigma, USA) at their left flanks. The immunization was repeated at their right flanks 1 week later. At 10 days after the second immunization, mice were sacrificed, and the spleens were harvested. The spleens of the sacrificed mice were teased into single-cell suspensions and filtered through nylon mesh […]. Red blood cells were lysed by Ammonium-Chloride-Potassium (ACK) lysing buffer. The washed and resuspended single cells were counted using Contess™ Automated Cell Counter (Invitrogen, USA). Splenocytes (8×10^6/mL) were incubated in RPMI-1640 medium supplemented with 10% heat inactivated fetal calf serum, 2 mM glutamine, 100 units/mL penicillin and 100 μg/mL streptomycin (Invitrogen, USA), in a 14 mL polypropylene tissue culture tube for 48 hours, with or without […] peptide (SEQ ID NO: 22) (2.5 μg/mL). The cells were then washed and recounted. 2×10^5 live cells in 100 μL medium were then loaded into wells of 96-well Filtration plates (Millipore, USA) coated with […] of capture anti-mouse IFN-γ mAb (Clone: R4-6A2, Biolegend, USA). Triplicates were set up for each condition. Cells were discarded after 24 hours of culture and the wells were incubated with […] of detectionbiotinylated, anti-mouse IFN-γ mAb overnight (Clone: XMG1.2-Biotin, Biolegend, USA). After the unbound antibodies were washed away from the wells, the bound antibodies were detected using horseradish peroxidase (HRP Avidin, Biolegend, USA) together with 3-amino-9-ethyl-carbazole (AEC) substrate (Sigma, USA). The membranes on the bottom of the wells were peeled off, and color spots on the membrane were scanned. The spots were automatically counted using ImageJ software.
Animal immunization. C57BL/6 mice were immunized by the subcutaneous injection of 2 nmol iTEP NP vaccines and incomplete Freunds Adjuvants (IFA; Sigma, USA) at their left flanks. Immunization was repeated at their right flanks after 1 week. On day 10 after the second immunization, mice were sacrificed, and the spleens were harvested.

[2] = SDS-PAGE analysis of NPs after GSH treatment; type: physicochemical; settings: GSH overnight, non-reducing gels
Description: SDS-PAGE was used to analyze responses of the RED-NP, the MS-NP, and the ST-NP to the treatment of 1 mM GSH. 1 mM but not 10 μM of GSH reduced disulfide bonds inside RED-NP. A large fraction of polymers of the RED-NP fusion (iTEPB70-iTEPA28-(G8C)4-pOVA; (SEQ ID NO: 61)) became monomers due to the treatment of 1 mM GSH, showing as a 50-kDa band on the gel. In contrast, GSH had no effect on polymerization status of the fusions of MS-NP and ST-NP. Non-reducing gels and 25 μg of each fusion were used for the analysis.

[3] = after 16 h incubation at 37° C.
[4] = after 16 h incubation in 5% CO2 at 37° C.
[5] = after the 16 h incubation at 37° C.

Molecule	Stability [1]	hydrodynamic diameter by intensity [1, 3]	hydrodynamic diameter by number distribution [1, 4]	Z-average [1, 5]	hydrodynamic diameter by number distribution ([1]; before incubation (0 h), 5 μM)	Z-average ([1]; before the incubation)	hydrodynamic diameter by intensity ([1]; before the incubation (0 h))	presentation of SIINFEKL by DCs (DC2.4 cells)	SIINFEKL-specific CTL response in vivo (C57BL/6 mice)	response to GSH treatment (reduction of disulfide bonds, SDS-PAGE) [2]	mean diameter (DLS) ([1]; 5 μM in PBS, 37° C., by number)	mean diameter / size (DLS) ([1]; 25 μM in PBS, 37° C., by number)	SIINFEKL-restricted activated splenocytes (INF-γ ELISPOT) (C57BL/6 mice; subcutaneous immunization twice, 2 nmol SIINFEKL equivalents per mouse with IFA)
ST-NP: stable NP of the fusion iTEPB70-iTEPA56-pOVA (SEQ ID NO: 60) (protein) GGAGVPGGAGVPGGAGVPGGAGVPGGAGVPGGAGVPGGAGVPGGAGVPGGAGVPGGAGVPGGAGVPGGAGVPGGAGVPGGAGVPGGAGVPGGAGVPGGAGVPGGAGVPGGAGVPGGAGVPGGAGVPGGAGVPGGAGVPGGAGVPGGAGVPGGAGVPGGAGVPGGAGVPGGAGVPGGAGVPGGAGVPGGAGVPGGAGVPGGAGVPGGAGVPGGAGVPGGAGVPGGAGVPGGAGVPGGAGVPGGAGVPGGAGVPGGAGVPGGAGVPGGAGVPGGAGVPGGAGVPGGAGVPGGAGVPGGAGVPGGAGVPGGAGVPGGAGVPGGAGVPGGAGVPGGAGVPGGAGVPGGAGVPGGAGVPGGAGVPGGAGVPGGAGVPGGAGVPGGAGVPGGAGVPGGAGVPGGAGVPGGAGVPGGAGVPGGAGVPGGGVLPGVGGVLPGVGGVLPGVGGVLPGVGGVLPGVGGVLPGVGGVLPGVGGVLPGVGGVLPGVGGVLPGVGGVLPGVGGVLPGVGGVLPGVGGVLPGVGGVLPGVGGVLPGVGGVLPGVGGVLPGVGGVLPGVGGVLPGVGGVLPGVGGVLPGVGGVLPGVGGVLPGVGGVLPGVGGVLPGVGGVLPGVGGVLPGVGGGGGGGGGCGGGGGGGGCGGGGGGGGCGGGGGGGGCGESIINFEKLTESIINFEKLTGG	++	74.45±18.99 nm	55.36±12.88 nm	70.42 nm	56.01±13.54 nm	74.59 nm	78.56±21.60 nm	significantly weaker presentation than the MS-NP	significantly weaker than the one elicited by the MS-NP	did not respond to the treatment			
RED-NP: reductive-environment dependable NP, disulfide stabilized fusion iTEPB70-iTEPA28-(G8C)4-pOVA (SEQ ID NO: 61) (protein) GGAGVPGGAGVPGGAGVPGGAGVPGGAGVPGGAGVPGGAGVPGGAGVPGGAGVPGGAGVPGGAGVPGGAGVPGGAGVPGGAGVPGGAGVPGGAGVPGGAGVPGGAGVPGGAGVPGGAGVPGGAGVPGGAGVPGGAGVPGGAGVPGGAGVPGGAGVPGGAGVPGGAGVPGGAGVPGGAGVPGGAGVPGGAGVPGGAGVPGGAGVPGGAGVPGGAGVPGGAGVPGGAGVPGGAGVPGGAGVPGGAGVPGGAGVPGGAGVPGGAGVPGGAGVPGGAGVPGGAGVPGGAGVPGGAGVPGGAGVPGGAGVPGGAGVPGGAGVPGGAGVPGGAGVPGGAGVPGGAGVPGGAGVPGGAGVPGGAGVPGGAGVPGGAGVPGGAGVPGGAGVPGGAGVPGGAGVPGGAGVPGGAGVPGGAGVPGGAGVPGGGVLPGVGGVLPGVGGVLPGVGGVLPGVGGVLPGVGGVLPGVGGVLPGVGGVLPGVGGVLPGVGGVLPGVGGVLPGVGGVLPGVGGVLPGVGGVLPGVGGVLPGVGGVLPGVGGVLPGVGGVLPGVGGVLPGVGGVLPGVGGVLPGVGGVLPGVGGVLPGVGGVLPGVGGVLPGVGGVLPGVGGVLPGVGGVLPGVGGCGCGCGCGESIINFEKLTESIINFEKLTGG		70.99±17.52 nm	53.05±12.38 nm	76.89 nm	61.94±12.71 nm	87.59 nm	75.55±15.32 nm	significantly better than that of the ST-NP	outperformed the MS-NP and induced stronger CTL responses	can be reduced by 1 mM but not by 10 μM of GSH			
G(GAGVPG)70G(GVLPGVG)28G(ESIINFEKLT)2GG (protein) GGAGVPGGAGVPGGAGVPGGAGVPGGAGVPGGAGVPGGAGVPGGAGVPGGAGVPGGAGVPGGAGVPGGAGVPGGAGVPGGAGVPGGAGVPGGAGVPGGAGVPGGAGVPGGAGVPGGAGVPGGAGVPGGAGVPGGAGVPGGAGVPGGAGVPGGAGVPGGAGVPGGAGVPGGAGVPGGAGVPGGAGVPGGAGVPGGAGVPGGAGVPGGAGVPGGAGVPGGAGVPGGAGVPGGAGVPGGAGVPGGAGVPGGAGVPGGAGVPGGAGVPGGAGVPGGAGVPGGAGVPGGAGVPGGAGVPGGAGVPGGAGVPGGAGVPGGAGVPGGAGVPGGAGVPGGAGVPGGAGVPGGAGVPGGAGVPGGAGVPGGAGVPGGAGVPGGAGVPGGAGVPGGAGVPGGAGVPGGAGVPGGAGVPGGAGVPGGAGVPGGESIINFEKLTESIINFEKLTGG			8.39±1.20 nm	422.90 nm	71.94±20.81 nm	101.00 nm	111.90±35.02 nm	significantly more		did not respond to the treatment	81.2±14.2 nm	71.9±20.8 nm	105 spots per million seeded splenocytes
